From patent US20160130362A1 (Genmab, published 2016)

Experiments:
[1] = target: T1, human CD38 on cells (CHO-CD38 cells, Daudi-luc cells, fresh multiple myeloma tumor cells) (human, UniProt P28907 1-300); test: cell-based or functional assay
[2] = target: T1, human CD38 on cells (CHO-CD38 cells, …); test: flow cytometry on fresh MM tumor cells, FITC-labelled antibody
[3] = target: T1, human CD38 on cells (CHO-CD38 cells, …); test: cell-based or functional assay; remark: listed apart in the source
[4] = target: T1, human CD38 on cells (CHO-CD38 cells, …); test: cell-based or functional assay; remark: listed apart in the source
[5] = target: T1, human CD38 on cells (CHO-CD38 cells, …); test: cell-based or functional assay; remark: listed apart in the source
[6] = target: His-CD38 (His-tagged extracellular domain of human CD38) (human, UniProt P28907 43-300); test: cell-based or functional assay
[7] = target: T1, human CD38 on cells (CHO-CD38 cells, …); test: flow cytometry on Daudi-luc cells, anti-human IgG-FITC detection
[8] = target: T2, cynomolgus monkey CD38 (on lymphoid tissue, lymphocytes and monocytes) (cynomolgus monkey, UniProt Q5VAN0 1-301); test: flow cytometry on cynomolgus lymphocytes, detection with FITC-labeled rabbit anti-human IgG (Example 11)
T2 construct: whole, on cells; also called cynomolgus CD38

[9] = target: T1, human CD38 on cells (CHO-CD38 cells, …); test: flow cytometry on CHO-CD38 cells, anti-human IgG-FITC detection
[10] = target: T3, HA-CD38 (HA-tagged extracellular domain of human CD38, wild type) (human, UniProt P28907 43-300); test: SPR (Biacore 3000), antibody immobilized on CM-5 chip, HA-CD38 flowed over, 25° C., mean of 3 ± SD
T3 construct: also called HA-tagged CD38; wt human CD38; not shown: HA-tag introduced by the forward PCR primer, after signal peptide SPHMM

[11] = target: T2, cynomolgus monkey CD38 (on lymphoid …); test: immunohistochemistry on frozen cynomolgus tissue sections
[12] = target: T1, human CD38 on cells (CHO-CD38 cells, …); test: flow cytometry on CHO-CD38 cells, detection with rabbit anti-human IgG-FITC (Example 4)

| Binder | EC50, CDC of CD38-CHO cells (PI-positive cells) [1] [µg/mL] | EC50, CDC of Daudi-luc cells (PI-positive cells) [1] [µg/mL] | EC50 [2] [µg/mL] | EC50, ADCC of Daudi-luc cells (51Cr release) [3] [µg/mL] | EC50, ADCC of fresh MM tumor cells (51Cr release) [3] [µg/mL] | Log EC50 of lysis (table captioned CDC; the text ties log EC50 values to ADCC of Daudi cells) [4] | EC50 of lysis of CHO-CD38 cells (table captioned ADCC; the text ties these values to CDC) [5] [µg/mL] | cGDPribose production (% of NGD control), 0.03 µg/ml antibody [6] | cGDPribose production (% of NGD control), 0.3 µg/ml antibody [6] | cGDPribose production (% of NGD control), 3 µg/ml antibody [6] | cGDPribose production (% of NGD control), 30 µg/ml antibody [6] | EC50 [7] [µg/mL] | binding result [8] | EC50 [9] [µg/mL] | Ka [10] [M⁻¹] | Kd [10] [nM] | binding result [11] | EC50 (read off the curve) [12] [µg/mL] |
| --- | --- | --- | --- | --- | --- | --- | --- | --- | --- | --- | --- | --- | --- | --- | --- | --- | --- | --- |
| -003 (antibody, human IgG1, V domains shown, Human monoclonal IgG1 antibody; The recombinant form was cloned into pConG1f0.4 (human IgG1 constant region) and pConKappa0.4 (kappa constant region); FITC-labelled in some assays; also called antibody -003; HuMab -003) VH: not shown VL: DIQMTQSPSSLSASVGDRVTITCRASQGISSWLAWYQQKPEKAPKSLIYAASSLQSGVPSRFSGSGSGTDFTLTISSLQPEDFATYYCQQYNSYPRTFGQGTKVEIK | 3.14 | > 90 | 0.56 | 0.009 | 0.027 | 1.17 | 4.5 | 107 % of NGD control | 107 % of NGD control | 100 % of NGD control | 99 % of NGD control | 0.26 | binds | 0.54 | 1.14e+09 | 0.885 | – | – |
| -024 (antibody, human IgG1, V domains shown, Human monoclonal IgG1 antibody; The recombinant form was cloned into pConG1f0.4 (human IgG1 constant region) and pConKappa0.4 (kappa constant region); also called antibody -024) VH: EVQLVQSGAEVKKPGESLKISCKGSGYSFSNYWIGWVRQMPGKGLEWMGIIYPHDSDARYSPSFQGQVTFSADKSISTAYLQWSSLKASDTAMYYCARHVGWGSRYWYFDLWGRGTLVTVSS VL: EIVLTQSPATLSLSPGERATLSCRASQSVSSYLAWYQQKPGQAPGLLIYDASNRASGIPARFSGSGSGTDFTLTISSLEPEDFAVYYCQQRSNWPLTFGGGTKVEIK | 0.24 | > 90 | 0.02 | 0.0097 | 0.056 | – | – | 105 % of NGD control | 104 % of NGD control | 100 % of NGD control | 99 % of NGD control | 0.05 | – | 0.08 | – | – | binds | ~0.2 |
| -005 (antibody, human IgG1, V domains shown) VH: EVQLLESGGGLVQPGGSLRLSCAVSGFTFNSFAMSWVRQAPGKGLEWVSAISGSGGGTYYADSVKGRFTISRDNSKNTLYLQMNSLRAEDTAVYFCAKDKILWFGEPVFDYWGQGTLVTVSS VL: not shown | – | – | – | – | – | – | – | 102 % of NGD control | 98 % of NGD control | 66 % of NGD control | 68 % of NGD control | – | – | – | – | – | – | – |
